The text below walks through data of the RNAGym collection of RNA variant scans (doi:10.1073/pnas.2313332121).

The labels stand for the following.
B1: TPR t1 (parent)
chain: GACCAAUCUGCCCUCAGAGCUCGAGAACAUCUUCGGAUGCAGAGGAGGCAGGCUUCGGUGGCGCGAUAGCGCCAACGUCCUCAACCUCCAAUGCAUCCCACCACAUGAUGAUGCCUGAAGAGCCUUGGUUUUUUG

This data set covers variants of B1. Kind of data set: polymerase ribozyme fitness, log enrichment relative to wild type (log ratio); higher = more active; in vitro selection for triplet polymerase activity. Summed up: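 A heterodimeric triplet polymerase ribozyme had each of its subunits mutagenized by PCR into a library, which was transcribed. One round of in vitro selection, done in triplicate, annealed each library with a biotinylated primer, its partner subunit and triplets, then incubated it frozen at −7 °C before gel excision of extended constructs, streptavidin-bead capture and RT-PCR. Fitness is the logarithm of genotype enrichment relative to wild-type enrichment, based on Illumina sequencing of inputs and outputs and inverse-variance-weighted replicate averages. A base-2 logarithm is used, and genotypes were kept only with ≥10 input reads and ≥1 read per output.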
In the case of C11G C76A G77A G93U, the “polymerase ribozyme fitness (log ratio)” value was -1.15. For the variant C31G C94G G113A, the “polymerase ribozyme fitness (log ratio)” value is -5.38. As for A29U C94A C102G U109C U130C, the “polymerase ribozyme fitness (log ratio)” value was -6.22. Regarding A41U C124G, the “polymerase ribozyme fitness (log ratio)” value is 0.981. As to U9C G17U U32C C49U C72U A105G, the “polymerase ribozyme fitness (log ratio)” value is -5.59.

On to A41U U78C, for which the “polymerase ribozyme fitness (log ratio)” value is -1.1.

As to A84U G93A, the “polymerase ribozyme fitness (log ratio)” value is -1.11. The value for C8A G42U U96A A100U was -2.37; that for G44C G63A was 0.0487; that for G61U was 0.14.

With G69C U92A U109G, the “polymerase ribozyme fitness (log ratio)” value is -6.72.

Consider C12A C28U G44A C49G C72U C86A, for which the “polymerase ribozyme fitness (log ratio)” value is -4.58. As for G71C C124G G128U, the “polymerase ribozyme fitness (log ratio)” value is -1.25. For G60C C80U the value was -4.1. As for G93U G110C, the “polymerase ribozyme fitness (log ratio)” value is -4.54.

Turning to C15G C40A U92C, the “polymerase ribozyme fitness (log ratio)” value is -4.63. Regarding G36A C49A G60A A118G, the “polymerase ribozyme fitness (log ratio)” value is -1.7.

For G71U C99U G120U, the “polymerase ribozyme fitness (log ratio)” value is -4.26.

With C12A C114U G135A, the “polymerase ribozyme fitness (log ratio)” value is -3.81. Take C4U G63U C124G: the “polymerase ribozyme fitness (log ratio)” value turned out to be 0.825. In the case of C13U C53G C56A, the “polymerase ribozyme fitness (log ratio)” value was -0.438. Regarding G47A A50U G57U C82A, the “polymerase ribozyme fitness (log ratio)” value is -2.37.

Regarding U21C U92G U96G A100C C124G, the “polymerase ribozyme fitness (log ratio)” value is -5.43. As for A2G C114A U126C, the “polymerase ribozyme fitness (log ratio)” value is -4.32. Take C8G G45A G117A C123A U130G: the “polymerase ribozyme fitness (log ratio)” value was determined as 0.313. On to A2U A5C A26G U54A, for which the “polymerase ribozyme fitness (log ratio)” value was -4.4. As for G42U G58C U87C G120A C123G U125A, the “polymerase ribozyme fitness (log ratio)” value turned out to be 0.38.

For G10U C56A U112A, the “polymerase ribozyme fitness (log ratio)” value was determined as 0.0795. Take C12U A66G A74U: the “polymerase ribozyme fitness (log ratio)” value is -1.17. For the variant U87C U96A, the “polymerase ribozyme fitness (log ratio)” value turned out to be 0.252.

With C8G A18U U21A C79A C123G, the “polymerase ribozyme fitness (log ratio)” value was -3.84.

For the variant C8A C56A C70A C98U C123G, the “polymerase ribozyme fitness (log ratio)” value was -1.64. Turning to A43C G117U, the “polymerase ribozyme fitness (log ratio)” value is -5. Consider A27G C49A U96A, for which the “polymerase ribozyme fitness (log ratio)” value was -3.34. Take C76G A84U U133G: the “polymerase ribozyme fitness (log ratio)” value is -0.998.

Consider C8U G51A, for which the “polymerase ribozyme fitness (log ratio)” value is -1.3. For C3G C13U C56A the value was -2.3; for C62U C86U, -0.567; for A50U U78G A90U, -3.54. For the variant C20U U81C, the “polymerase ribozyme fitness (log ratio)” value is -1.54. For the variant C8U U96A U125G U131C, the “polymerase ribozyme fitness (log ratio)” value was -1.53.

Take A5U A18U C88U: the “polymerase ribozyme fitness (log ratio)” value is -2.74. The value for C3U A43U C56G U81A A95U A111G G122A was -5.71; that for G39A G44A U78C was -1.89. As for C28A G135U, the “polymerase ribozyme fitness (log ratio)” value was -4.58. On to C28U C56U, for which the “polymerase ribozyme fitness (log ratio)” value was -1.85. As for A18U G42U G69A A100U C114A G128U, the “polymerase ribozyme fitness (log ratio)” value is -7.14. For the variant C12G U14G G52C G61A C82A C88A A118U, the “polymerase ribozyme fitness (log ratio)” value is -2.32. With G39A A66U C123U, the “polymerase ribozyme fitness (log ratio)” value is -0.175. For G10C C89A the value was -2.73. Regarding G44U C70A C73U, the “polymerase ribozyme fitness (log ratio)” value is -2.95. With A37C G45C C72U C104G C115G, the “polymerase ribozyme fitness (log ratio)” value was -7.48. As for C11A G17C U55C C88U U131G, the “polymerase ribozyme fitness (log ratio)” value was -5.05. Turning to C56A G71A, the “polymerase ribozyme fitness (log ratio)” value was -3.71. With C11G G42A U59A A91C C94A A95G A118G, the “polymerase ribozyme fitness (log ratio)” value was -4.19. In the case of A43G U92C, the “polymerase ribozyme fitness (log ratio)” value was -3.

Take A29G A95G: the “polymerase ribozyme fitness (log ratio)” value was -1.84.

Consider G19A C76U C124U, for which the “polymerase ribozyme fitness (log ratio)” value was -1.46. For G47C C56A the value was -2.47.

Take G10C A18U: the “polymerase ribozyme fitness (log ratio)” value was -3.34.

Take A27U A50U: the “polymerase ribozyme fitness (log ratio)” value was -4.65. As for U9A G36A, the “polymerase ribozyme fitness (log ratio)” value came to 0.00915. For the variant A6U U9G G63A C104U C115U G117U, the “polymerase ribozyme fitness (log ratio)” value is -3.69. The value for A41C C62A C82U was -2.04; that for C56U G60A C98U G117C C124U U130A was -6.06; that for A18C C56A C82A C94U U106C was -4.93. For C4G C12U G60U C89G A111U the value was -5.57; for A2G C13U C53U, -0.428; for C12A A26C C56G G63U C89G G107A U116C, -7.06. Consider A2C C15A A27C C31A G51U A84C C99G A121U U130G, for which the “polymerase ribozyme fitness (log ratio)” value was -6.15. For the variant C56G C64U C80A, the “polymerase ribozyme fitness (log ratio)” value was -2.96. The value for G48A C124U was 1.15; that for U33A C56A was -4.57. The value for C3G C15A C22G C115U was -4.4. As to C4G A37G C49G G113C, the “polymerase ribozyme fitness (log ratio)” value was -4.25. Regarding A5C C22A, the “polymerase ribozyme fitness (log ratio)” value is -4.57. Take C22A G51C C72A: the “polymerase ribozyme fitness (log ratio)” value was -6.53. The value for C8A C72G C85A A111G U126C was -1.51; that for G42C G57A C64A C85A G113U was -7.14.

Regarding A29U G48C, the “polymerase ribozyme fitness (log ratio)” value is -2.86. For U9C C11U G61A C88G the value was -0.498; for A6G A18G U129A U133A G135U, -5.44.

On to C8A C70U A91C U116A, for which the “polymerase ribozyme fitness (log ratio)” value was -2.96. For A26U U32C C94A the value was -4.33.
